Measurements published in the RNAGym collection of RNA variant scans (doi:10.1093/nar/gkz1192).

B1: CPEB3 Ribozyme (parent)
chain: UAACAGGGGGCCACAGCAGAAGCGUUCACGUCGCAGCCCCUGUCAGAUUCUGGUGAAUCUGCGAAUUCUGCUGUAUAUCUC

Variants of: B1
Test: self-cleavage, relative activity (ratio to wild type); higher = more cleavage; in vitro, sequencing
Summary of the method: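 Barcoded CPEB3 ribozyme mutants, produced by rounds of error-prone PCR, self-cleaved while being transcribed with T7 RNA polymerase for 5 hours at 37°C and during a subsequent 15 min DNase I step before EDTA was added. Sequencing of template-switched cDNA on Illumina gave cleaved and total reads, and DNA sequencing assigned barcodes to variants. Each variant's relative activity is its cleaved/total read fraction divided by the unmutated ribozyme's fraction, averaged across three batches. A variant needed a minimum of 5 reads.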

Variant	self-cleavage
U69C G70A	0.24
U66C U69A	0.3
U66C U69C	0.34
U66C U69G	0.31
U67C G70U	0.26
U67C G70A	0.18
U67C G70C	0.39
U72C C79A	1.3
U67A C71G	0.33
U67A C71U	0.11
U67A C71A	0.3
U66C C71U	0.43
U66C C71A	0.25
U67A U78C	0.52
U67A U78A	0.64
C71U U72G	0.62
C71U U72C	1.02
U69C U78A	0.66
U69C U78G	0.61
U69C U78C	0.69
U69G C71A	0.09
U67G C79U	0.51
U72A U80G	0.99
U72A U80C	1.29

Variant	self-cleavage
U72A U80A	1.11
U66G C68U	0.38
U66G C68G	0.29
C68G A77G	0.61
U67A C81G	0.92
U67G C68U	0.44
C68G	0.47
C68U	1.06
C68A	0.41
U69G C81A	0.86
U67C U74C	0.37
U67C U74A	0.31
U67C G73U	0.46
U67C G73C	0.46
U67C G73A	0.34
U69A A75U	0.66
U69A A75C	0.55
U69A A75G	0.53
U67A G70C	0.23
U67A G70A	0.45
C68U U80C	1.08
U67G A77C	0.32
C68A U80C	0.53
U69G U78C	0.71

Variant	self-cleavage
U69G U78A	0.45
U66A U80G	0.64
U66A U80C	0.5
U66A U80A	0.49
C68A U72C	0.2
C68A U72A	0.4
G70A U72C	0.42
G70A U72A	0.33
U72C A75G	1.14
U72C A75U	1.25
U67A U74C	0.92
U67A U74G	0.81
U67A U74A	0.8
G70U U78A	0.48
U72C	1.13
U72A	0.81
U66G U78C	0.41
U69C U76C	0.66
U69C U76G	0.79
U69C U76A	0.75
U69A U74A	0.55
U69A U74C	0.96
U66A U72A	0.58
U66A U72C	0.59

Variant	self-cleavage
U67C C68U	0.46
U67C C68A	0.38
U67A A77U	0.39
U67A A77G	0.57
U66G U72C	0.61
U66G U72A	0.24
G70U A77G	0.4
C68U U78C	1.03
C68U U78A	1.01
U66C U67G	0.32
U66C U67A	0.25
U66C U67C	0.32
U69C G73A	0.99
U69C G73U	0.88
U66C C81A	0.54
U66C C81U	0.44
U66C U74C	0.66
U66C U74A	0.62
G70C C71U	0.3
C71A U80C	0.63
C71A U80A	0.37
U67A A75G	0.54
U67A A75U	0.65
U67A U80C	0.58

Variant	self-cleavage
U67A U80A	0.58
U69C A75U	0.44
U69C A75G	0.5
U66C C68U	0.39
G70C	0.31
G70U	0.37
G70A	0.55
U72A C79U	0.68
C68A U78C	0.5
C71A A75U	0.17
U67G U78C	0.3
U67G U78A	0.67
U69C U80A	0.79
U69C U80G	0.73
U69C U80C	0.52
G70A C71G	0.23
G70A C71U	0.41
C68A G73U	0.85
G70U U72G	0.35
G70U U72C	0.42
U67C U69A	0.33
U67C U69C	0.32
U67C U69G	0.45
U66A U69C	0.26

Variant	self-cleavage
U67A C68U	0.33
U72A U78A	0.72
U72A U78C	0.8
U72A A75U	1.22
U72A A75G	1.12
U72A A75C	0.78
U67G U74C	0.6
U69A C71U	0.33
U69A C71G	0.22
G70A U80C	0.45
G70A U80A	1
U66A U74C	0.86
U66A U74A	0.85
U66A U74G	0.59
U69A U76C	0.7
U69A U76G	0.7
U69A U76A	0.84
C71A U72C	0.41
C71A U72A	0.22
C68A U76C	0.54
U72A U74C	1.16
U72A U74A	1.34
U66A U78A	0.38
U66A U78C	0.31

Variant	self-cleavage
U67A U72C	0.49
U67A U72G	0.35
U67A U72A	0.38
G70C U80C	0.22
C68U U72G	0.95
C68U U72A	0.35
C68U U72C	0.93
U69G U76A	0.94
U69G U76C	0.98
C71A U78G	0.11
C71A U78C	0.49
U66C U78C	0.36
U66C U78A	0.43
C71A A77U	0.36
U69C C81U	0.5
U69C C81A	1.16
U69C C81G	0.89
G70U U80A	0.67
U66C U76G	0.39
U66C U76C	0.43
U66C U76A	0.41
U69C C71A	0.2
U69C C71G	0.24
